Here are results for two molecules from PMC2989882.

Data set [1] has as its target T1, 3Dpol WT (RNA-dependent RNA polymerase) (poliovirus, UniProt P03300 1749-2209). As to the kind of experiment: NMR.
Data set [2] addresses T1, 3Dpol WT (RNA-dependent RNA polymerase). As to the kind of experiment: NMR. The source holds these as a separate data set.

Read-outs that look alike come from different tables or passages of the source.

T1 sequence (P03300 1749-2209): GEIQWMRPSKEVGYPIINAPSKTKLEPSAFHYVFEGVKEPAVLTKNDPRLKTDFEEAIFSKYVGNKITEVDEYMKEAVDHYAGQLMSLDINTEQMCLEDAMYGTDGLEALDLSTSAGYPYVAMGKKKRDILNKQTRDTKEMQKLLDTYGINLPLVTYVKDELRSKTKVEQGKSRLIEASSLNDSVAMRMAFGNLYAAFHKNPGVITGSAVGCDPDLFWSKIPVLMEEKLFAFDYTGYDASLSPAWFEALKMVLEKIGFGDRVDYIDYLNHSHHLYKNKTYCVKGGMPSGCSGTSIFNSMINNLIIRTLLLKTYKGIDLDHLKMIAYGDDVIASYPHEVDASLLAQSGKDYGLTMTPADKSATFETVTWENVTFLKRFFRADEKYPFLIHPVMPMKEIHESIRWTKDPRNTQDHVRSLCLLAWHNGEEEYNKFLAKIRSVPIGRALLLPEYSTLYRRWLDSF

B1: 3'-blocked sym/sub RNA (after 3'-dAMP incorporation) (dsRNA)
RNA 1: GCAUGGGCCCA
RNA 2: GCAUGGGCCCA
modifications: 3'-terminal 3'-deoxyadenosine (A11)
Consider B1, for which, in data set [1], the binding result is “binds”.

B2: sym/sub RNA (dsRNA)
RNA 1: GCAUGGGCCC
RNA 2: GCAUGGGCCC
For B2, the binding result in data set [2] is recorded as “binds”.
